Test results: the supplement of paper PMC10567573

B1: ZNF649 (parent)
chain: DECEKAYFYMSCLVKHKRIHSREK

Variants of: B1
Experiment: protein stability index of a GFP-peptide fusion (GPS, HEK-293T) (PSI 1-6); higher = more stable
Conditions: c terminus: a fixed tail appended
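Further: lentivirally expressed fusions sorted by FACS into six bins by GFP to DsRed ratio, PSI derived from sequencing read proportions per bin multiplied by bin number.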

| Variant | protein stability index |
| --- | --- |
| H16L | 1.84 |
| H16R | 2.82 |
| H16I | 1.69 |
| H16V | 1.61 |
| H16F | 1.79 |
| H16K | 2.65 |
| H16Y | 2.11 |
| E4V | 1.79 |
| E4A | 1.62 |
| E4Q | 2.34 |
| E4Y | 2.01 |
| E4H | 2.26 |
| E4F | 1.92 |
| E4S | 2.48 |
| F8Y | 2.65 |
| F8E | 4.18 |
| F8R | 2.82 |
| F8C | 2.96 |
| F8W | 3.07 |
| F8G | 4.02 |
| F8V | 3.23 |
| M10N | 4.14 |
| M10Y | 3.11 |
| M10I | 1.86 |

| Variant | protein stability index |
| --- | --- |
| M10Q | 4.12 |
| M10R | 3.32 |
| A6C | 2.08 |
| A6Q | 3.02 |
| A6N | 2.65 |
| A6R | 2.35 |
| A6L | 2.08 |
| A6Y | 1.76 |
| A6I | 1.89 |
| A6F | 1.64 |
| A6S | 3.04 |
| A6E | 3.01 |
| Y7P | 3.54 |
| Y7I | 2.23 |
| Y7V | 2.68 |
| Y9C | 2.81 |
| Y9V | 2.54 |
| Y9K | 3.73 |
| Y9S | 3.56 |
| Y9D | 4.51 |
| Y9P | 3.78 |
| Y9G | 4.26 |
| Y9N | 3.93 |
| Y9M | 2.57 |

| Variant | protein stability index |
| --- | --- |
| K17L | 1.91 |
| K17H | 2.05 |
| K17N | 2.45 |
| K17P | 2.35 |
| K17M | 1.61 |
| K17V | 2.19 |
| K17D | 2.85 |
| K17Y | 2.14 |
| K17G | 2.42 |
| C12T | 3.83 |
| C12N | 3.38 |
| C12Y | 2.43 |
| C12F | 2.69 |
| C12V | 2.42 |
| C12Q | 3.09 |
| C12K | 2.8 |
| L13G | 3.24 |
| L13V | 2.98 |
| L13H | 2.95 |
| L13D | 4.25 |
| L13Q | 2.99 |
| L13M | 3.25 |
| L13C | 3.27 |
| L13K | 2.68 |

| Variant | protein stability index |
| --- | --- |
| L13Y | 2.21 |
| D1K | 2 |
| D1F | 1.98 |
| D1M | 2.06 |
| D1A | 2.41 |
| D1P | 2.44 |
| E2L | 2.25 |
| E2V | 1.57 |
| E2Y | 4.44 |
| E2P | 2.21 |
| E2D | 2.21 |
| E2G | 2.29 |
| E2C | 1.52 |
| E23M | 1.8 |
| E23W | 2.23 |
| E23P | 2.1 |
| E23A | 3.48 |
| E23T | 2.48 |
| E23I | 2.42 |
| E23L | 2.99 |
| K24R | 2.42 |
| K24A | 2.1 |
| K24F | 1.85 |
| K24W | 1.92 |

| Variant | protein stability index |
| --- | --- |
| K24I | 2.12 |
| K24L | 1.75 |
| K24S | 3.13 |
| K24Y | 2.05 |
| K15V | 1.75 |
| K15H | 2.45 |
| K15S | 2.34 |
| K15Q | 2.3 |
| K15Y | 1.92 |
| K15I | 2.18 |
| K15D | 3.24 |
| K15R | 2.12 |
| K15L | 2.15 |
| K15M | 1.9 |
| R22K | 3.08 |
| R22C | 2.36 |
| R22V | 2.32 |
| R22G | 2.19 |
| R22Q | 2.28 |
| R22E | 2.89 |
| R22D | 2.8 |
| S11G | 3.21 |
| S11A | 2.07 |
| S11H | 2.82 |

| Variant | protein stability index |
| --- | --- |
| S11F | 1.66 |
| S11P | 3.24 |
| S11E | 2.62 |
| S11V | 1.87 |
| K5V | 1.81 |
| K5Y | 1.82 |
| K5G | 3.13 |
| K5C | 2.52 |
| K5F | 1.67 |
| K5R | 2.5 |
| K5T | 2.64 |
| I19Y | 2.34 |
| I19T | 2.98 |
| I19K | 2.9 |
| I19S | 3.36 |
| I19N | 2.97 |
| I19L | 2.4 |
| I19P | 3.3 |
| I19G | 3.27 |
| I19A | 3.26 |
| R18E | 2.59 |
| R18C | 2.32 |
| R18F | 2.4 |
| R18A | 2.53 |

| Variant | protein stability index |
| --- | --- |
| R18H | 2.62 |
| S21P | 2.08 |
| S21C | 3.33 |
| S21Q | 2.95 |
| S21N | 2.98 |
| S21I | 2.61 |
| S21T | 2.15 |
| H20C | 2.92 |
| H20R | 2.59 |
| H20P | 3.15 |
| H20Q | 2.6 |
| H20T | 2.12 |
| H20I | 2.09 |
| V14K | 3.41 |
| V14W | 1.64 |
| V14R | 3.12 |
| V14G | 2.9 |
| C3G | 2.92 |
| C3V | 2.55 |
| C3H | 2.35 |
| C3D | 2.98 |
| C3K | 2.88 |
| C3M | 2.4 |
